Results from the supplement of paper PMC7877785.
± gives the uncertainty stated by the source.

Assay: self-splicing fitness, log relative to wild type (ln ratio); higher = more splicing; Tetrahymena group I intron in knt gene, E. coli kanamycin selection, DiMSum; sequences stand for … in CUCUCU…GGAGGGAAAAGUUAUCAGGCAUGCACCUGGUAGCUAGUCUUUAAACCAAUAGAUUGCAUCGGUUUAAAAGGCAAGACCGUCAAAUUGCGGGAAAGGGGUCAACAGCCGUUCAGUACCAAGUCUCAGGGGAAACUUUGAGAUGGCCUUGCAAAGGGUAUGGUAAUAAGCUGACGGACAUGGUCCUAACCACGCAGCCAAGUCCUAAGUCAACAGAUCUUCUGUUGAUAUGGAUGCAGUUCACAGACUAAAUGUCGGUCGGGGAAGAUGUAUUCUUCUCAUAAGAUAUAGUCGGACCUCUCCUUAAUGGGAGCUAGCGGAUGAAGUGAUGCAACACUGGAGCCGCUGGGAACUAAUUUGUAUGCGAAAGUAUAUUGAUUAGUUUUGGAGUACUCGUGGUCG
Method in brief: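 DiMSum derived fitness as the error-weighted combination of fold changes across replicates, kanamycin versus no kanamycin, normalised to wild type. E. coli BL21(DE3) held the library, which randomised all eight P1ex-region intron nucleotides within the knt kanamycin-resistance gene on pET-22b(+). Six replicate transformations grew overnight at 37°C or 30°C on LB agar with or without 25 μg/mL kanamycin, also containing 100 μg/mL carbenicillin, 50 μM IPTG and 0.2% rhamnose, and pooled colonies were amplicon-sequenced on an Illumina HiSeq 2500.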

| Sequence | self-splicing fitness (ln) (30 °C) | self-splicing fitness (ln) (37 °C) |
| --- | --- | --- |
| CCCUAGCAAUAUUACGUUCU | -4.33 ± 0.23 | -3.61 ± 0.19 |
| CCCUAGCAAUAUUACGUUUC | -3.32 ± 0.17 | -2.24 ± 0.19 |
| CCCUAGCAAUAUUACGUUUU | -3.59 ± 0.15 | -2.2 ± 0.14 |
| CCGAAGCAAUAUUACGAAUA | -2.66 ± 0.24 | -2.49 ± 0.21 |
| CCGAAGCAAUAUUACGACAG | -0.797 ± 0.098 | -0.282 ± 0.12 |
| CCGAAGCAAUAUUACGAGAC | – | -2.52 ± 0.31 |
| CCGAAGCAAUAUUACGAGUA | -2.42 ± 0.2 | -2.92 ± 0.23 |
| CCGAAGCAAUAUUACGAUAU | -4.3 ± 0.35 | -3.21 ± 0.26 |
| CCGAAGCAAUAUUACGCCGG | – | -2.21 ± 0.46 |
| CCGAAGCAAUAUUACGCGAU | -3.78 ± 0.28 | -1.93 ± 0.33 |
| CCGAAGCAAUAUUACGCUUU | -2.45 ± 0.15 | -3.33 ± 0.23 |
| CCGAAGCAAUAUUACGGAGC | -1.9 ± 0.33 | -2.74 ± 0.44 |
| CCGAAGCAAUAUUACGGAUU | -2.88 ± 0.27 | -3.15 ± 0.35 |
| CCGAAGCAAUAUUACGGCAU | -4.19 ± 0.31 | -2.92 ± 0.23 |
| CCGAAGCAAUAUUACGGCGA | -2.69 ± 0.3 | -2.53 ± 0.32 |
| CCGAAGCAAUAUUACGUAUG | -0.869 ± 0.077 | 0.0157 ± 0.1 |
| CCGAAGCAAUAUUACGUCCU | – | -1.89 ± 0.28 |
| CCGAAGCAAUAUUACGUGUC | -3.49 ± 0.23 | -1.34 ± 0.16 |
| CCGAAGCAAUAUUACGUUAU | -3.94 ± 0.32 | -2.87 ± 0.2 |
| CCGAAGCAAUAUUACGUUUC | -3.56 ± 0.24 | -2.84 ± 0.19 |
| CCGCAGCAAUAUUACGAACU | -1.92 ± 0.17 | – |
| CCGCAGCAAUAUUACGACGA | -0.105 ± 0.077 | -0.259 ± 0.084 |
| CCGCAGCAAUAUUACGAGAA | -3.07 ± 0.28 | -2.24 ± 0.31 |
| CCGCAGCAAUAUUACGAGCG | -2.4 ± 0.12 | -0.494 ± 0.11 |
| CCGCAGCAAUAUUACGAGGA | -3.51 ± 0.19 | -1.79 ± 0.13 |

| Sequence | self-splicing fitness (ln) (30 °C) | self-splicing fitness (ln) (37 °C) |
| --- | --- | --- |
| CCGCAGCAAUAUUACGAGUU | -4.11 ± 0.22 | -2.56 ± 0.21 |
| CCGCAGCAAUAUUACGCCAU | -3.66 ± 0.15 | -3.07 ± 0.19 |
| CCGCAGCAAUAUUACGCCCG | -0.205 ± 0.11 | 0.732 ± 0.16 |
| CCGCAGCAAUAUUACGCGUC | -3 ± 0.13 | -3.01 ± 0.23 |
| CCGCAGCAAUAUUACGGCUG | -3.8 ± 0.29 | -2.45 ± 0.27 |
| CCGCAGCAAUAUUACGGUGU | -3.97 ± 0.16 | -1.89 ± 0.14 |
| CCGCAGCAAUAUUACGGUUG | -2.18 ± 0.066 | -1.24 ± 0.085 |
| CCGCAGCAAUAUUACGUCCA | -2.28 ± 0.27 | 0.175 ± 0.2 |
| CCGCAGCAAUAUUACGUCCG | -0.393 ± 0.084 | -0.499 ± 0.09 |
| CCGCAGCAAUAUUACGUGCA | -3.71 ± 0.33 | -1.54 ± 0.14 |
| CCGCAGCAAUAUUACGUGCU | -2.05 ± 0.27 | – |
| CCGCAGCAAUAUUACGUGGC | -3.29 ± 0.16 | -2.3 ± 0.2 |
| CCGCAGCAAUAUUACGUUCG | -0.778 ± 0.056 | -0.0727 ± 0.077 |
| CCGGAGCAAUAUUACGAAAG | -2.31 ± 0.11 | -1.05 ± 0.12 |
| CCGGAGCAAUAUUACGAACU | -2.29 ± 0.31 | -0.657 ± 0.28 |
| CCGGAGCAAUAUUACGACAA | -3.72 ± 0.43 | -2.16 ± 0.3 |
| CCGGAGCAAUAUUACGCACG | – | -0.516 ± 0.21 |
| CCGGAGCAAUAUUACGCCAC | -3.02 ± 0.49 | 0.445 ± 0.34 |
| CCGGAGCAAUAUUACGCCUC | – | -2.47 ± 0.41 |
| CCGGAGCAAUAUUACGCGGA | -3.34 ± 0.23 | -2.74 ± 0.29 |
| CCGGAGCAAUAUUACGCGGG | -4.25 ± 0.39 | -2.25 ± 0.19 |
| CCGGAGCAAUAUUACGGACA | -2.43 ± 0.42 | -2.97 ± 0.47 |
| CCGGAGCAAUAUUACGGACG | -2.82 ± 0.19 | -1.31 ± 0.25 |
| CCGGAGCAAUAUUACGGAGA | -3.99 ± 0.39 | -2.24 ± 0.25 |
| CCGGAGCAAUAUUACGGCCG | -2.44 ± 0.26 | -0.644 ± 0.21 |

| Sequence | self-splicing fitness (ln) (30 °C) | self-splicing fitness (ln) (37 °C) |
| --- | --- | --- |
| CCGGAGCAAUAUUACGGCUU | -0.296 ± 0.29 | -1.49 ± 0.33 |
| CCGGAGCAAUAUUACGGGCC | – | -2.03 ± 0.33 |
| CCGGAGCAAUAUUACGGGUA | -3.53 ± 0.4 | – |
| CCGGAGCAAUAUUACGGUAG | -2.71 ± 0.14 | -2.75 ± 0.21 |
| CCGGAGCAAUAUUACGUCGA | -3.12 ± 0.2 | -1.89 ± 0.19 |
| CCGGAGCAAUAUUACGUGCC | -2.1 ± 0.38 | -2.94 ± 0.35 |
| CCGGAGCAAUAUUACGUGCG | -1.42 ± 0.077 | -0.676 ± 0.091 |
| CCGUAGCAAUAUUACGAAUG | -0.463 ± 0.099 | 0.0216 ± 0.11 |
| CCGUAGCAAUAUUACGAGAA | -2.42 ± 0.42 | -1.03 ± 0.44 |
| CCGUAGCAAUAUUACGCAGU | -2.54 ± 0.18 | -2.6 ± 0.27 |
| CCGUAGCAAUAUUACGCAUU | -3.54 ± 0.31 | -2.9 ± 0.47 |
| CCGUAGCAAUAUUACGGAUC | -3.86 ± 0.2 | -2.03 ± 0.19 |
| CCGUAGCAAUAUUACGGCGA | -2.54 ± 0.21 | -2.62 ± 0.25 |
| CCGUAGCAAUAUUACGGCUA | -3.49 ± 0.34 | -3.04 ± 0.35 |
| CCGUAGCAAUAUUACGGUAG | -3.48 ± 0.2 | -2.97 ± 0.24 |
| CCGUAGCAAUAUUACGUACA | -2.04 ± 0.14 | -1.8 ± 0.19 |
| CCGUAGCAAUAUUACGUACU | – | -2.03 ± 0.32 |
| CCGUAGCAAUAUUACGUCAC | -1.02 ± 0.27 | – |
| CCUAAGCAAUAUUACGAUAA | -2.87 ± 0.2 | -3.37 ± 0.28 |
| CCUAAGCAAUAUUACGAUAC | -3.63 ± 0.4 | -2.3 ± 0.27 |
| CCUAAGCAAUAUUACGAUGU | -2.84 ± 0.12 | -2.03 ± 0.15 |
| CCUAAGCAAUAUUACGAUUG | -3.51 ± 0.19 | -1.68 ± 0.13 |
| CCUAAGCAAUAUUACGCACU | -2.71 ± 0.23 | -2.96 ± 0.23 |
| CCUAAGCAAUAUUACGCCUC | -2.59 ± 0.36 | – |
| CCUAAGCAAUAUUACGCGCC | -2.47 ± 0.26 | -1.63 ± 0.33 |

| Sequence | self-splicing fitness (ln) (30 °C) | self-splicing fitness (ln) (37 °C) |
| --- | --- | --- |
| CCUAAGCAAUAUUACGCGGA | -2.38 ± 0.19 | -3.62 ± 0.46 |
| CCUAAGCAAUAUUACGCUAG | -3.75 ± 0.47 | -1.64 ± 0.3 |
| CCUAAGCAAUAUUACGCUUG | -4.18 ± 0.36 | -2.98 ± 0.26 |
| CCUAAGCAAUAUUACGGAAC | -3.35 ± 0.3 | -1.68 ± 0.24 |
| CCUAAGCAAUAUUACGGACG | -1.15 ± 0.059 | -0.303 ± 0.08 |
| CCUAAGCAAUAUUACGGGGU | -3.28 ± 0.17 | -2.82 ± 0.17 |
| CCUAAGCAAUAUUACGGUAA | -2.48 ± 0.24 | -2.73 ± 0.25 |
| CCUAAGCAAUAUUACGGUGC | -2.79 ± 0.28 | -2.19 ± 0.32 |
| CCUAAGCAAUAUUACGGUGU | -4.62 ± 0.23 | -1.89 ± 0.16 |
| CCUAAGCAAUAUUACGUAGG | -3.82 ± 0.15 | -2.94 ± 0.22 |
| CCUAAGCAAUAUUACGUCAC | – | -1.54 ± 0.49 |
| CCUAAGCAAUAUUACGUGAC | -4.32 ± 0.3 | – |
| CCUAAGCAAUAUUACGUGCC | -2.84 ± 0.3 | – |
| CCUCAGCAAUAUUACGACCG | -0.986 ± 0.093 | -0.493 ± 0.095 |
| CCUCAGCAAUAUUACGAGGU | -3.38 ± 0.21 | -2.62 ± 0.19 |
| CCUCAGCAAUAUUACGCAUU | -3.81 ± 0.19 | -2.3 ± 0.22 |
| CCUCAGCAAUAUUACGCCGC | -3.72 ± 0.37 | – |
| CCUCAGCAAUAUUACGCGAA | -3.88 ± 0.34 | -3.79 ± 0.34 |
| CCUCAGCAAUAUUACGCGAC | -3.47 ± 0.28 | -2.08 ± 0.22 |
| CCUCAGCAAUAUUACGCUAA | -2.79 ± 0.14 | -3.05 ± 0.2 |
| CCUCAGCAAUAUUACGCUGC | -3.53 ± 0.21 | -1.69 ± 0.24 |
| CCUCAGCAAUAUUACGGAUA | -1.87 ± 0.15 | -2.41 ± 0.24 |
| CCUCAGCAAUAUUACGGUCA | -3.48 ± 0.26 | -2.04 ± 0.15 |
| CCUCAGCAAUAUUACGGUGU | -3.9 ± 0.27 | -1.76 ± 0.16 |
| CCUCAGCAAUAUUACGUAGC | -3.9 ± 0.19 | -2.73 ± 0.28 |
